Test results published in patent US10724034B2, “Genetic encoding of chemical post-translational modification for phage-displayed libraries” (THE GOVERNORS OF THE UNIVERSITY OF ALBERTA, priority 2014, dated 2020).
Blank lines part the entries; values can stand above or below the molecule they belong to. Ends that are not written are not given here. SA = 4-(aminooxymethyl)benzenesulfonamide joined by oxime ligation to the periodate-oxidised N-terminal serine; Gal = galactose; Rha = rhamnose

Assays:
[1] = target: T1, human Galectin-3 protein (human, UniProt P17931 2-250, limits assumed); test: ELISA-like competition with HRP-Lac on Galectin-3 coated plates; reference MeGal
T1 construct: also called Gal3

[2] = target: T1, human Galectin-3 protein; test: ELISA-like competition with HRP-Lac on Galectin-3 coated plates; reference lactose
[3] = target: T2, Bovine carbonic anhydrase II (bovine, UniProt P00921 2-260); test: ITC, replicate [row SA-WIVP, middle panel]
T2 construct: Commercial protein; also called BCA
Experimental: (§1) FIG. 9 provides additional replicates of raw ITC data of sulfonamide-peptide (SA-XXXX) binding to carbonic anhydrase. Raw data obtained for 30 injections of ligands (20-95 μM) into a solution of carbonic anhydrase (2.5-12 μM) at 4-min intervals and 30° C. is shown.

[4] = target: T2, Bovine carbonic anhydrase II; test: ITC, replicate [row SA-WIVP, right panel]
Experimental: as §1

[5] = target: T2, Bovine carbonic anhydrase II; test: isothermal titration calorimetry, 30 C, single binding site model; selected peptide SA-WIVP (SEQ ID NO:26)
Experimental: as §1

[6] = target: T2, Bovine carbonic anhydrase II; test: isothermal titration calorimetry; reference SA-GGGG
Experimental: as §1

[7] = target: T2, Bovine carbonic anhydrase II; test: ITC, replicate [row SA-GGGG, right panel]
[8] = target: T2, Bovine carbonic anhydrase II; test: isothermal titration calorimetry, 30 C, single binding site model; control peptide SA-GGGG (SEQ ID NO:101)
Experimental: as §1

[9] = target: T2, Bovine carbonic anhydrase II; test: ITC, replicate [row SA-GGGG, middle panel]
Experimental: as §1

[10] = target: T2, Bovine carbonic anhydrase II; test: ITC, replicate [row SA-TRPA, right panel]
Experimental: as §1

[11] = target: T2, Bovine carbonic anhydrase II; test: ITC, replicate [row SA-TRPA, middle panel]
Experimental: as §1

[12] = target: T2, Bovine carbonic anhydrase II; test: ITC, replicate [row SA-TRPA, left panel]
[13] = target: T1, human Galectin-3 protein; test: competition ELISA: HRP-Lactose binding to plate-coated Galectin-3 [upper left panel]
Method in brief: (§2)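 An ELISA-like competition assay used the carbohydrate recognition domain of human Galectin-3, coated at 10 μg/ml on polystyrene 96-well plates, with a lactose-conjugated horseradish peroxidase probe. Test molecules competed with the probe's binding, and competition was read as a decrease in colour development. The half-maximal inhibitory concentration was taken from the competition curves.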

[14] = target: T1, human Galectin-3 protein; test: ELISA-like competition with HRP-Lac on immobilised Galectin-3; reference lactose
Method in brief: (§3)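 An ELISA-like competition assay used the carbohydrate recognition domain of human Galectin-3, coated at 10 μg/ml on polystyrene 96-well plates. Test molecules competed with a bound lactose-conjugated horseradish peroxidase probe, and competition was read as a decrease in colour development. Each value is the fold difference in inhibition relative to a known Galectin-3 reference ligand run in the same assay.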

[15] = target: T1, human Galectin-3 protein; test: ELISA-like competition: inhibition of soluble HRP-Lactose binding to immobilised Galectin-3
Method in brief: as §2

[16] = target: T1, human Galectin-3 protein; test: competition ELISA: HRP-Lactose binding to plate-coated Galectin-3 [lower left panel]
Method in brief: as §2

[17] = target: T1, human Galectin-3 protein; test: competition ELISA: HRP-Lactose binding to plate-coated Galectin-3 [upper right panel]
Method in brief: as §2

[18] = target: T1, human Galectin-3 protein; test: ELISA-like competition with HRP-Lac on immobilised Galectin-3; reference MeGal
Method in brief: as §3

[19] = target: T1, human Galectin-3 protein; test: competition ELISA: HRP-Lactose binding to plate-coated Galectin-3 [lower right panel]
Method in brief: as §2

[20] = target: T1, human Galectin-3 protein; test: ELISA-like competition with HRP-Lac on immobilised Galectin-3; reference Lacto-N-Tetraose
Method in brief: as §3

T2 sequence (P00921 2-260 limits assumed): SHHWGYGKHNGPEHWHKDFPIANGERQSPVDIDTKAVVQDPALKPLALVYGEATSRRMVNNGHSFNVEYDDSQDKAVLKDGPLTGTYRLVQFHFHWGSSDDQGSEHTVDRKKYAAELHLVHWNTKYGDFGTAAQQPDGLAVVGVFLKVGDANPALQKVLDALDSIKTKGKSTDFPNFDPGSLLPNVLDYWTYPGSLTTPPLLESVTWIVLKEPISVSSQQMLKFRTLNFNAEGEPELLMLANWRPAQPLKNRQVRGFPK
T1 sequence (P17931 2-250 limits assumed): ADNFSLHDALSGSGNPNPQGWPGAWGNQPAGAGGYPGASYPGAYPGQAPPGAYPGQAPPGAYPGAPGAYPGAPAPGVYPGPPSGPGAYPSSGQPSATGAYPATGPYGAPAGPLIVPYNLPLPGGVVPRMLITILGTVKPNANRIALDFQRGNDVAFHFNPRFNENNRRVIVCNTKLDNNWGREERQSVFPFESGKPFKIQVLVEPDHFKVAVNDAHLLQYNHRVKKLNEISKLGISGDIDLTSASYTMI

Molecule: Rha-IWVR (rhamnose-peptide conjugate)
- fold more potent inhibitor than MeGal [1]: 400 fold
- fold better than Lactose control [2]: 10 fold

Molecule: Rha-PQLP (not fully specified; printed as Rha-PQLP) [Rha-PQLP]
- IC50 (read off the curve) [13]: ~1000 µM

B3: Gal-PAPT (galactose-modified glycopeptide) (peptide)
peptide: Gal-PAPT
modifications: also: exact galactose derivative not given here
notes: Synthetic glycan-peptide conjugate; also called glycopeptide Gal-PAPT
- fold better inhibition than Lactose [14]: 30 fold
- EC50 [15]: 14 µM
- IC50 (read off the curve) [16]: ~20 µM
- IC50 (read off the curve) [17]: ~20 µM
- fold better inhibition than MeGal [18]: > 1500 fold
- IC50 (read off the curve) [19]: ~20 µM
- fold better inhibition than LNT [20]: 5 fold

More lines, now with the values ahead:

- Kd [3]: 0.009 µM
- Kd [4]: 0.006 µM
- Kd [5]: 0.005 µM
- fold stronger affinity than control peptide SA-GGGG [6]: 30 fold
B1: SA-WIVP (sulfonamide-modified peptide) (peptide)
peptide: {SA}-WIVP-NH2
modifications: also: N-terminal SA cap oxime-linked, made from oxidised N-terminal Ser
notes: Synthetic conjugate made from the peptide S-WIVP; The N-terminal Ser is turned into the oxime-linked sulfonamide; also called sulfonamide-peptide; SA-XXXX

- Kd [7]: 0.14 µM
- Kd [8]: 0.15 µM
- Kd [9]: 0.13 µM
B2: SA-GGGG (control sulfonamide-modified peptide) (peptide)
peptide: {SA}-GGGG-NH2
modifications: also: N-terminal SA cap oxime-linked, made from oxidised N-terminal Ser
notes: Control peptide in ITC; also called control peptide SA-GGGG

- Kd [10]: 0.038 µM
- Kd [11]: 0.031 µM
- Kd [12]: 0.033 µM
Molecule: {SA}-TRPA-NH2 (also: N-terminal SA cap oxime-linked, made from oxidised N-terminal Ser) [SA-TRPA]
